Patent US20040198654A1 (Eli Lilly, published 2004)
Where no end group is shown, it is not given here.

These binders were tested against GLP-1 receptor (assay: cell-based or functional assay).

Q: HVEGTWTSDVSSYLEEQAAKEFIAWLVKGRG-OH [Val^8-Trp^12-Glu^22-GLP-1(7-37)OH] was tested. Which “GLP-1 receptor activation relative to Val^8-GLP-1(7-37)OH” value did it give?
A: The value was 1.7 fold of Val^8-GLP-1(7-37)OH.

Q: Which “GLP-1 receptor activation relative to Val^8-GLP-1(7-37)OH” value does the source give for HVEGTFTSDWSSYLEEQAVKEFIAWLIKGRG-OH [Val^8-Trp^16-Glu^22-Val^25-Ile^33-GLP-1(7-37)OH] here?
A: The value was 5 fold of Val^8-GLP-1(7-37)OH.

Q: With HVEGTFTSDWSSYLEEQAVKEFIAWLVKGRG-OH [Val^8-Trp^16-Glu^22-Val^25-GLP-1(7-37)OH] as the binder, how does the “GLP-1 receptor activation relative to Val^8-GLP-1(7-37)OH” value read?
A: Its value is 4.4 fold of Val^8-GLP-1(7-37)OH.

Q: How did the “GLP-1 receptor activation relative to Val^8-GLP-1(7-37)OH” value turn out when HVEGTFTSDVSSYLEEQAAKIFIAWLVKGRG-OH [Val^8-Glu^22-Ile^27-GLP-1(7-37)OH] was run?
A: The value was 2 fold of Val^8-GLP-1(7-37)OH.

Q: With HVEGTFTSDYSSWLEEQAAKEFIAWLVKGRG-OH [Val^8-Tyr^16-Trp^19-Glu^22-GLP-1(7-37)OH] as the binder, how does the “GLP-1 receptor activation relative to Val^8-GLP-1(7-37)OH” value read?
A: Its value is 3.5 fold of Val^8-GLP-1(7-37)OH.

Q: How did the “GLP-1 receptor activation relative to Val^8-GLP-1(7-37)OH” value turn out when HVEGTFTSDVSFYLEEQAAKEFIAWLVKGRG-OH [Val^8-Phe^18-Glu^22-GLP-1(7-37)OH] was run?
A: The value was 2 fold of Val^8-GLP-1(7-37)OH.

Q: How did the “GLP-1 receptor activation relative to Val^8-GLP-1(7-37)OH” value turn out when HVEGTYTSDVSSYLEGQAAKEFIAWLVKGRG-OH [Val^8-Tyr^12-GLP-1(7-37)OH] was run?
A: Its value is 1.7 fold of Val^8-GLP-1(7-37)OH.

Q: HVEGTFTSDVSKYLEEQAAKEFIAWLVKGRG-OH [Val^8-Lys^18-Glu^22-GLP-1(7-37)OH] was tested. Which “GLP-1 receptor activation relative to Val^8-GLP-1(7-37)OH” value did it give?
A: Its value is 2.5 fold of Val^8-GLP-1(7-37)OH.

Q: HVEGTYTSDVSSYLEEQAAKEFIAWLVKGRG-OH [Val^8-Tyr^12-Glu^22-GLP-1(7-37)OH] was tested. Which “GLP-1 receptor activation relative to Val^8-GLP-1(7-37)OH” value did it give?
A: The value was 2.7 fold of Val^8-GLP-1(7-37)OH.

Q: How did the “GLP-1 receptor activation relative to Val^8-GLP-1(7-37)OH” value turn out when HVEGTWTSDVSSYLEGQAAKEFIAWLVKGRG-OH [Val^8-Trp^12-GLP-1(7-37)OH] was run?
A: Its value is 1.1 fold of Val^8-GLP-1(7-37)OH.

Q: For HVEGTFTSDVSIYLEEQAAKEFIAWLVKGRG-OH [Val^8-Ile^18-Glu^22-GLP-1(7-37)OH], which “GLP-1 receptor activation relative to Val^8-GLP-1(7-37)OH” value is on record?
A: Its value is 4 fold of Val^8-GLP-1(7-37)OH.

Q: How did the “GLP-1 receptor activation relative to Val^8-GLP-1(7-37)OH” value turn out when HVEGTFTSDFSSYLEEQAAKEFIAWLVKGRG-OH [Val^8-Phe^16-Glu^22-GLP-1(7-37)OH] was run?
A: The value was 2.3 fold of Val^8-GLP-1(7-37)OH.

Q: For HVEGTFTSDYSSFLEGQAAKEFIAWLVKGRG-OH [Val^8-Tyr^16-Phe^19-GLP-1(7-37)OH], which “GLP-1 receptor activation relative to Val^8-GLP-1(7-37)OH” value is on record?
A: The value was 2.8 fold of Val^8-GLP-1(7-37)OH.

Q: With HVEGTFTSDISSYLEEQAAKEFIAWLVKGRG-OH [Val^8-Ile^16-Glu^22-GLP-1(7-37)OH] as the binder, how does the “GLP-1 receptor activation relative to Val^8-GLP-1(7-37)OH” value read?
A: Its value is 3.3 fold of Val^8-GLP-1(7-37)OH.

Q: For HVEGTFTSDVSSYLEGQAAKEFIAWLVKGRH-OH [Val^8-His^37-GLP-1(7-37)OH], which “GLP-1 receptor activation relative to Val^8-GLP-1(7-37)OH” value is on record?
A: The value was 1.2 fold of Val^8-GLP-1(7-37)OH.

Q: HVEGTFTSDVSSYLEEQAIKEFIAWLVKGRG-OH [Val^8-GLU^22-Ile^25-GLP-1(7-37)OH] was tested. Which “GLP-1 receptor activation relative to Val^8-GLP-1(7-37)OH” value did it give?
A: The value was 3.1 fold of Val^8-GLP-1(7-37)OH.

Q: HVEGTFTSDYSSYLEGQAAKEFIAWLVKGRG-OH [Val^8-Tyr^16-GLP-1(7-37)OH] was tested. Which “GLP-1 receptor activation relative to Val^8-GLP-1(7-37)OH” value did it give?
A: Its value is 2.5 fold of Val^8-GLP-1(7-37)OH.

Q: How did the “GLP-1 receptor activation relative to Val^8-GLP-1(7-37)OH” value turn out when HVEGTFTSDVSSYFEEQAAKEFIAWLVKGRG-OH [Val^8-Phe^20-Glu^22-GLP-1(7-37)OH] was run?
A: Its value is 2.7 fold of Val^8-GLP-1(7-37)OH.

Q: How did the “GLP-1 receptor activation relative to Val^8-GLP-1(7-37)OH” value turn out when HVEGTYTSDVSSYLEGQAAKEFIAWLVKGR-NH2 [Val^8-Tyr^12-GLP-1(7-36)NH2] was run?
A: Its value is 1.1 fold of Val^8-GLP-1(7-37)OH.

Q: For HVEGTFTSDVSSYLEGQAAKEFIEWLVKGRG-OH [Val^8-Glu^30-GLP-1(7-37)OH], which “GLP-1 receptor activation relative to Val^8-GLP-1(7-37)OH” value is on record?
A: Its value is 0.7 fold of Val^8-GLP-1(7-37)OH.

Q: Which “GLP-1 receptor activation relative to Val^8-GLP-1(7-37)OH” value does the source give for HVEGTFTSDLSSYLEEQAAKEFIAWLVKGRG-OH [Val^8-Leu^16-Glu^22-GLP-1(7-37)OH] here?
A: Its value is 4.3 fold of Val^8-GLP-1(7-37)OH.

Q: Which “GLP-1 receptor activation relative to Val^8-GLP-1(7-37)OH” value does the source give for HVEGTFTSDVSSYLEEQALKEFIAWLVKGRG-OH [Val^8-Glu^22-Leu^25-GLP-1(7-37)OH] here?
A: Its value is 2.8 fold of Val^8-GLP-1(7-37)OH.

Q: HVDGIFTSDYSSYLEEQAAKEFIAWLVKGRG-OH [Val^8-Asp^9-Ile^11-Tyr^16-Glu^22-GLP-1(7-37)OH] was tested. Which “GLP-1 receptor activation relative to Val^8-GLP-1(7-37)OH” value did it give?
A: The value was 4.3 fold of Val^8-GLP-1(7-37)OH.

Q: For HVEGTFTSDVSSYLEGQALKEFIAWLVKGRG-OH [Val^8-Leu^25-GLP-1(7-37)OH], which “GLP-1 receptor activation relative to Val^8-GLP-1(7-37)OH” value is on record?
A: The value was 0.5 fold of Val^8-GLP-1(7-37)OH.

Q: HVEGTFTSDWSSYLEEQAAKEFIAWLIKGRG-OH [Val^8-Trp^16-Glu^22-Ile^33-GLP-1(7-37)OH] was tested. Which “GLP-1 receptor activation relative to Val^8-GLP-1(7-37)OH” value did it give?
A: The value was 4.1 fold of Val^8-GLP-1(7-37)OH.

Q: How did the “GLP-1 receptor activation relative to Val^8-GLP-1(7-37)OH” value turn out when HVEGTFTSDVSSWLEEQAAKEFIAWLVKGRG-OH [Val^8-Trp^19-Glu^22-GLP-1(7-37)OH] was run?
A: The value was 3.2 fold of Val^8-GLP-1(7-37)OH.

Q: HVEGTFTSDVSSFLEEQAAKEFIAWLVKGRG-OH [Val^8-Phe^19-Glu^22-GLP-1(7-37)OH] was tested. Which “GLP-1 receptor activation relative to Val^8-GLP-1(7-37)OH” value did it give?
A: The value was 1.5 fold of Val^8-GLP-1(7-37)OH.

Q: Which “GLP-1 receptor activation relative to Val^8-GLP-1(7-37)OH” value does the source give for HVEGTFTSDLSSYLEGQAAKEFIAWLVKGRG-OH [Val^8-Leu^16-GLP-1(7-37)OH] here?
A: The value was 1.1 fold of Val^8-GLP-1(7-37)OH.

Q: How did the “GLP-1 receptor activation relative to Val^8-GLP-1(7-37)OH” value turn out when HVEGTFTSDVSSYLEEQAAKEFIAWLVKGRH-OH [Val^8-Glu^22-His^37-GLP-1(7-37)OH] was run?
A: The value was 4.7 fold of Val^8-GLP-1(7-37)OH.

Q: For HVEGTYTSDYSSYLEGQAAKEFIAWLVKGRG-OH [Val^8-Tyr^12-Tyr^16-GLP-1(7-37)OH], which “GLP-1 receptor activation relative to Val^8-GLP-1(7-37)OH” value is on record?
A: Its value is 1.5 fold of Val^8-GLP-1(7-37)OH.

Q: How did the “GLP-1 receptor activation relative to Val^8-GLP-1(7-37)OH” value turn out when HGEGTFTSDVSSYLEGQAAKEFIAWLVKGRG-OH [Gly^8-GLP-1(7-37)OH] was run?
A: Its value is 1.7 fold of Val^8-GLP-1(7-37)OH.
